{"source": "paper PMC11488100", "about": "“PET imaging of CXCR4 expression using [^18F]AlF-NOTA-QHY-04 for hematologic malignancy and solid tumors” (Theranostics, 2024)", "key": {"[1]": {"set-up": "species or system mice", "conditions": "mouse, in vivo", "method": "The xenografted mice were injected with [^18F]AlF-NOTA-QHY-04 (3.70 ± 0.74 MBq) in about 150 μL saline via the tail vein. All the PET scans were performed with micro-PET/CT (IRIS PET/CT, Inviscan, France) and the radioactivity were expressed as %ID/mL. Detailed procedures for dynamic, static imaging and blocking studies are provided in the supplemental materials. Biodistribution studies were conducted using mice with xenografted A549/CXCR4 tumors with and without blocking (n = 3). The mice were sacrificed immediately after static PET/CT 1 h post injection (p.i.), then the tumors and organs were quickly collected, weighed and counted for radioactivity by a γ-counter. The γ-counter activity readings were background- and decay-corrected and represented as the percentage of injected dose per gram of tissue (%ID/g)."}, "[2]": {"assay_type": "in vitro ADME, human", "method": "The in vitro and in vivo stability of [^18F]AlF-NOTA-QHY-04 were evaluated by radio-HPLC to examine the RCP after different incubation periods. The binding affinity of the unlabeled precursor to CXCR4 was measured using the biolayer interferometry Octet Red96 system (PALL ForteBio, USA). The details are supplied in the supplemental materials.\nSynthesis of [18F]AlF-NOTA-QHY-04\nBriefly, NOTA-QHY-04 was radiolabeled with [18F]F-, following procedures. 10-20 […]\nGBq [18F]F− produced by medical cyclotron (MINITRACE Cyclotron, GE, USA) was […]\ncaptured with a QMA SepPak light cartridge (Waters Corporation, USA) and then eluted […]\nwith 300-500 μL saline (0.9% NaCl). Then, the saline containing [18F]F− was added to […]\nThe partition coefficient (logD) of [18F]AlF-NOTA-QHY-04 was determined in a […]\nfrom each phase were measured for radioactivity using a γ-counter. […]\nrepeated three times to ensure the accuracy of the results. The logD was calculated by […]\ndividing the average radioactivity in the 1 -octanol layer by that in the PBS layer, and the […]\nhuman serum albumin solution were evaluated by radio-HPLC to examine the radiochemical purity after different incubation periods. For the saline study, 200 μL of [18F]AlF-NOTA-QHY-04 (0.74–3.70 MBq) was incubated at 37°C with 800 μL of saline for 1 h, 3 h and 6 h respectively, and then directly evaluated by radio -HPLC. […]"}}, "note": "Bridge positions count the residues as written; N and C are the ends. Square brackets hold non-standard residues; d marks the D form. Peptide text beside a SMILES is read from it. * marks the point of attachment. NOTA = O=C(O)CN1CCN(CC(=O)O)CCN(CC(=O)*)CC1; 2Nal = N[C@@H](Cc1ccc2ccccc2c1)C(=O)O; Pen = CC(C)(S)[C@H](N)C(=O)O; 4Amb = NCc1ccc(C(=O)O)cc1; Ahx = NCCCCCC(=O)O", "data": [{"compound": "C[C@H](NC(=O)[C@H](CCCNC(=N)N)NC(=O)CCCCCNC(=O)c1ccc(CNC(=O)CN2CCN(CC(=O)O)CCN(CC(=O)O)CC2)cc1)C(=O)N[C@@H]1CSSC(C)(C)[C@@H](C(=O)O)NC(=O)[C@H](Cc2c[nH]cn2)NC(=O)[C@H](Cc2ccc3ccccc3c2)NC(=O)[C@H](CCCNC(=N)N)NC1=O", "note": "[[^18F]AlF-NOTA-QHY-04] ({NOTA-4Amb-Ahx}-RA[dC]R[2Nal]H[Pen]-OH; disulfide 3-7)", "values": [{"measurement": "Tumor-to-organ ratio T/Blood", "setting": "[1]", "result": "3.63 ± 0.56"}, {"measurement": "Tumor-to-organ ratio T/Heart", "setting": "[1]", "result": "7.77 ± 0.60"}, {"measurement": "Tumor-to-organ ratio T/Kidney", "setting": "[1]", "result": "0.23 ± 0.05"}, {"measurement": "Tumor-to-organ ratio T/Liver", "setting": "[1]", "result": "1.84 ± 0.17"}, {"measurement": "Tumor-to-organ ratio T/Muscle", "setting": "[1]", "result": "10.94 ± 5.33"}, {"measurement": "radiochemical purity after incubation in 5% human serum albumin solution", "setting": "[2]", "result": "above 95%"}]}]}
